Source: paper PMC3168117 (Nature structural & molecular biology, 2011)

Biological target: the molecule itself
Experiment: SEC-MALS

B1: VopL W3-C (residues 115-484: three WH2 motifs and the VCD) (domain or fragment, Vibrio parahaemolyticus, UniProt Q87GE5 115-484, looked up)
chain: NLSKGAPKSSSNSLDSVNEDHSKLMEQIRQGVKLKSATKSLSADKSSADAHSKLMEELLTGGRKLKKVATSDIPAPPPLPSASTSKSPDSRNALLSEIAGFSKDRLRKTGSLETLNSSQSKDKESFEPTTHERLLSEDLFKQSPKLSEQELDELANNLADYLFQAADIDWHQVISEKTRGLTTEEMAKSEHRYVQAFCREILKYPDCYKSADVASPESPKSGGGSVIDVALKRLQTGRERLFTTTDEKGNRELKKGDAILESAINAARMAISTEEKNTILSNNVKSATFEVFCELPCMDGFAEQNGKTAFYALRAGFYSAFKNTDTAKQDITKFMKDNLQAGFSGYSYQGLTNRVAQLEAQLAALSAKLS
With B1 the “stoichiometry N” value was 2.
